Experimental data: the supplement of paper PMC9170038

Test system: MS2 coat protein
Test: apparent KD of MS2 coat protein; designed switch direction (-1 OFF switch, 1 ON switch): -1; higher = weaker reporter binding
Method in brief: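 On Illumina chips, designed RNA switches with common flanks were made by stalled E. coli RNA polymerase. Titrations with SNAP-549-labelled MS2 coat protein, doubling from 0.7 or 1.5 nM to 3 µM, were done with no input, with 200 uM small-molecule ligand, or with an oligonucleotide input. Apparent KD is the median per design over clusters, from curve fits of normalised cluster fluorescence.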

[1] = input ligand: microRNA oligo, concentration not stated
[2] = Eterna round: R95, input ligand: microRNA oligo, concentration not stated
[3] = Eterna round: R95, input ligand: FMN 200 uM
[4] = Eterna round: R95, input ligand: none

| Sequence | apparent KD of MS2 coat protein (input ligand: FMN 200 uM) [nM] | apparent KD of MS2 coat protein (input ligand: none) [nM] | apparent KD of MS2 coat protein [2] [nM] | further results |
| --- | --- | --- | --- | --- |
| UCAGUGCUGCGAGGAUAUACAUGAGGAUCACCCAUGUAAAUGUGUGAGGCUUUGCCUCACACAAUGUAGAAGGCGCAGUACUGU [Mat - Exclusion NG 2 - Mod of JL - D3] (Eterna round: R96, puzzle: Exclusion NG 2) | 17.2 | 14.3 |  | apparent KD of MS2 coat protein [1]: 11.1 nM |
| UCAUGAUGAUAGGAUAUCGCGCGGUGAAAUGCGCGAGAAGGAUUAACAUGAGGAUCACCCAUGUUGGUCUGUUA [Eternabot (L2) Solution 69] (Eterna round: R97, puzzle: Exclusion 6) | 27.9 | 15.3 |  |  |
| UCAUGGUAGCAGGAUAUGCUUGUAAUUUUUUAUGCAGAAGGGCUUACAUGAGGAUCACCCAUGUGUUAGGUCUA [JR_E6_Sub069] (puzzle: Exclusion 6) |  |  | 45.2 |  |
| UCAUGUCCAGAGGAUAUGUAGCGGGAGACCGCAACAGAAGGCUGGACAUGAGGAUCACCCAUGUGCGCCUUCCA [jl-ex3-4.26 ViennaUCT mod] (Eterna round: R97, puzzle: Exclusion 6) | 21.8 | 17 |  |  |
| UCAUGUUUAGAGGAUAUGAUUACUCUAGAGUGAUCAGAAGGCUAGACAUGAGGAUCACCCAUGUCAGAACAUGC [Exclusion 6 - B - 17:b] (puzzle: Exclusion 6) |  |  | 24.7 | apparent KD of MS2 coat protein [3]: 17.7 nM; apparent KD of MS2 coat protein [4]: 31.9 nM |
| UCAUGUUUAGAGGAUAUGAUUACUUUCGAGUAAUCAGAAGGCUAGACAUGAGGAUCACCCAUGUCAUAACAUGA [Exclusion 6 - B - 15:b] (puzzle: Exclusion 6) |  |  | 71.8 | apparent KD of MS2 coat protein [3]: 68.7 nM; apparent KD of MS2 coat protein [4]: 214 nM |
| UCAUUGGUAGGAUAUACAUGAGGAUCACCCAUGUGUCCGGAGCAGUAUGCUUGAAAACGUAGAAGGACCUAGGA [Eternabot (L1) Solution 15] (Eterna round: R97, puzzle: Exclusion 3) | 45.3 | 40.4 |  |  |
| UCCAAACAUGAGGAUCACCCAUGUGAGGAUAUGAUACUAUGUACUUCGGUACAUAGUAUCAGAAGGCACAUCCA [Ex1-3: 10] (puzzle: Exclusion 1) |  |  | 13.4 |  |
| UCCAACCCUGUGAGGAUAUCGUCCAUUUUUUGUUCCGAGAAGGCACAUGAGGAUCACCCAUGUUUUUUAUUUUU [JR_BMOE4_Sub078] (puzzle: Brourd's mod of Exclusion 4) |  |  | 34.9 |  |
| UCCCAGUGAGGAUAUACUUAUCGGGUCGGUUAGCGAGGAAAACUUGAGGAUCACCCAAGUAGAAGGCGCAACGU [Isinar] (Eterna round: R97, puzzle: Exclusion 2) | 35.1 | 29.6 |  |  |
| UCCGUACAUGAGGAUCACCCAUGUCAGGAUAUGCAGACCGGCCGCCAGCGACCGGCCCGCAGAAGGGACAUAGA [EX1 B.4] (Eterna round: R97, puzzle: Exclusion 1) | 140 | 30.7 |  |  |
| UCCGUACAUGAGGAUCACCCAUGUCAGGAUAUGGCUUUUAGCGUAGACGCGCAAGAGGCCAGAAGGGACUUUUG [Eternabot (L2) Solution 6] (Eterna round: R97, puzzle: Exclusion 1) | 30.5 | 27.7 |  |  |
| UCCUCACAUGAGGAUCACCCAUGUCAGGAUAUAAGAAACGCGGAAGGCAGCCGCAAAAUUAGAAGGGACAUUAA [EX1 A.25] (Eterna round: R97, puzzle: Exclusion 1) | 39.7 | 20.6 |  |  |
| UCCUCACAUGAGGAUCACCCAUGUCAGGAUAUACAAGAAAAUAACCGGAAAGACCGGAGUAGAAGGGACAUAAG [Beleonrala] (puzzle: Exclusion 1) |  |  | 16.1 | apparent KD of MS2 coat protein [3]: 31.6 nM; apparent KD of MS2 coat protein [4]: 16.1 nM |
| UCCUCACAUGAGGAUCACCCAUGUCAGGAUAUGUACCCGAUCAAGUCAGAGAUCGGAAGCAGAAGGGACUGCGG [Larebeti] (puzzle: Exclusion 1) |  |  | 70.7 | apparent KD of MS2 coat protein [3]: 26.5 nM; apparent KD of MS2 coat protein [4]: 59.2 nM |
| UCCUCACCUUAGGAUAUCUUGACGGGACUCUCAGGAGAAGGAAGGACAUGAGGAUCACCCAUGUUCAAAACAAC [EX6 B.18] (Eterna round: R97, puzzle: Exclusion 6) | 50.2 | 23.2 |  |  |
| UCCUGACAUGAGGAUCACCCAUGUUAGGAUAUAACAUUUGACGCGACAGUGUGGAGUGUUAGAAGGGAUGUGGG [-29.5, -26.8 kcal, A 27%] (Eterna round: R97, puzzle: Exclusion 1) | 20.5 | 17.4 |  |  |
| UCCUGCUGGCGAGGAUAUCCUGUGCGGUUCCGGCUCGUGUCUGUUACAUGAGGAUCACCCAUGUGGGAGAAGGUGUCUGUGGCC [Design 98] (Eterna round: R96, puzzle: Exclusion NG 2) | 18.6 | 20.5 |  | apparent KD of MS2 coat protein [1]: 14.1 nM |

| Sequence | apparent KD of MS2 coat protein (input ligand: FMN 200 uM) [nM] | apparent KD of MS2 coat protein (input ligand: none) [nM] | apparent KD of MS2 coat protein [2] [nM] | further results |
| --- | --- | --- | --- | --- |
| UCCUGGCGAGGAUAUACAAUGUUAUUCGCGUGUAGUUGGAAACAUGAGGAUCACCCAUGUAGAAGGUGCUACUG [JR_Ex2_Sub025] (Eterna round: R97, puzzle: Exclusion 2) | 27.4 | 23.8 |  |  |
| UCCUGGUCAGGAUAUUGCAGGUCGUACGCUCUGAGUCUAGGCAAGAAGGGACAUGAGGAUCACCCAUGUGGGCG [Eternabot (L1) Solution 4] (Eterna round: R97, puzzle: Exclusion 4) | 406 | 187 |  |  |
| UCCUUACAUGAGGAUCACCCAUGUCAGGAUAUCUCCACACUGCGCUUGCGCAGUGUAUAGAGAAGGGACAGGCU [JL ViennaUCT Aner mod 6] (puzzle: Exclusion 1) |  |  | 26.5 | apparent KD of MS2 coat protein [3]: 33.4 nM; apparent KD of MS2 coat protein [4]: 35.8 nM |
| UCCUUACUGGUCAGGAUAUACAUUCGCUACUCCUUGUAGAAGGGACAUGAGGAUCACCCAUGUACGUUACAUCC [alecazam54b] (Eterna round: R97, puzzle: Brourd's mod of Exclusion 4) | 22.9 | 21.6 |  |  |
| UCCUUACUGGUCAGGAUAUACAUUCGCUACUGGGUGUAGAAGGGACAUGAGGAUCACCCAUGUACGUUACAUCC [alecazam54e] (Eterna round: R97, puzzle: Brourd's mod of Exclusion 4) | 19.3 | 23.8 |  |  |
| UCGACUACAGUAGGAUAUGUAGGAUAUGUGGUUGAGGAUCACCCAACCACUUCAACGACAGAAGGACAGAAGGACUGACAACGU [pwkr exNG2 2xFMN 1xF5.3] (Eterna round: R96, puzzle: Exclusion NG 2) | 16.8 | 16.5 |  | apparent KD of MS2 coat protein [1]: 14.8 nM |
| UCGACUAGAGGAUAUACAUGAGGAUCACCCAUGUUGGUAUCACGAAUUCAACCAACUCGUAGAAGGCUGACGAC [Eternabot (L1) Solution 98] (Eterna round: R97, puzzle: Exclusion 3) | 24.2 | 24.9 |  |  |
| UCGAGGUCAGGAUAUACAUGAGGAUCACCCAUGUGGAAGUAAGGUAGGAGAAGAGUAGGUAGAAGGGACGAGGG [JR_Exclu3_Sub051] (puzzle: Exclusion 3) |  |  | 37.9 | apparent KD of MS2 coat protein [3]: 38.2 nM; apparent KD of MS2 coat protein [4]: 46.3 nM |
| UCGAGGUCAGGAUAUACAUGAGGAUCACCCAUGUGGAGAUAAGGUAGGAAAAGAGUAGGUAGAAGGGACGAGAG [JR_Exclu3_Sub048] (puzzle: Exclusion 3) |  |  | 40.6 | apparent KD of MS2 coat protein [3]: 61.4 nM; apparent KD of MS2 coat protein [4]: 57.6 nM |
| UCGAGGUCAGGAUAUACAUGAGGAUCACCCAUGUUGAGAGAAGGUAGGAAAAGAGUAGGUAGAAGGGACGAGAG [JR_Exclu3_Sub046] (puzzle: Exclusion 3) |  |  | 26.1 |  |
| UCGAUGUGAGGAUAUAUUUUUAUUAGUCCUUAUGUUUUAUAACUUGAGGAUCACCCAAGUAGAAGGCGCGACGU [JR_Ex2_Sub061] (Eterna round: R97, puzzle: Exclusion 2) | 32.6 | 34.6 |  |  |
| UCGAUGUGAGGAUAUAUUUUUAUUAGUCCUUAUGUUUUAUAACUUGAGGAUCACCCAAGUAGAAGGCGCUACGU [JR_Ex2_Sub062] (Eterna round: R97, puzzle: Exclusion 2) | 25.5 | 40.9 |  |  |
| UCGCAAGCCAUUCCUACUCACAUGAGGAUCACCCAUGUCCUCAGGUUCGUCGUGUCUCUCUGCAAACACUUGCAGAG [Eternabot (L2) Solution 7] (Eterna round: R97, puzzle: Sensor, turn-off variant 1) | 145 | 762 |  |  |
| UCGCAGGGAGGAUAUACACACAGGUGACGCAGCCCAAAAGAACAUGAGGAUCACCCAUGUAGAAGGCUCAAUAU [Eternabot (Original) Solution 2] (Eterna round: R97, puzzle: Exclusion 2) | 51.5 | 31.2 |  |  |
| UCGCUGCGAGGAUAUACAUGAGGAUCACCCAUGUACGGGUCCGGGUCUAAGUUGAUAAGUAGAAGGCGCAGUGA [JL Laongeedie mod 12] (puzzle: Exclusion 3) |  |  | 114 |  |
| UCGCUGCGAGGAUAUACAUGAGGAUCACCCAUGUGCGGGUCCGGGUUUUCGUCCAUUAGUAGAAGGCGCAGUGA [JL Laongeedie mod 3] (puzzle: Exclusion 3) |  |  | 269 |  |
| UCGCUGCGAGGAUAUACGUUUGCGCGCUUUCGUUUGCGCGUACAUGAGGAUCACCCAUGUAGAAGGCGCGCUGC [Apr-15 SS2-7] (puzzle: Exclusion 2) |  |  | 13.1 |  |
| UCGGCCGCCGUGAGGAUAUGCCCGCGCGCCCGCGGGCAGAAGGCACAUGAGGAUCACCCAUGUCCCGCGGCACC [salish99_bmx4_r4_125] (Eterna round: R97, puzzle: Brourd's mod of Exclusion 4) | 15.1 | 14.1 |  |  |
